Reference: a protein production outcome set (Wang et al. 2014)

Assay: label from the status in PepcDB records

| Sequence | protein production |
| --- | --- |
| MARRNRGVTRRERPNLLITGTPGTGKSTTASALAEATNLRYICIGDLVKEKEFYHGWDNELECHFINEDSVIDELDDAMIEGGNIVDYHGCDFFPQRWFDRVVVLRTENSVLYDRLTNSKVLIVFSQPTKAGVIQEPSLVTTFNAKCIKSYSKKHMTVMMRKLSLNYKGEAMLAKTVFPRGLLVLRSFSSVASKTLLKVGDVLRETRVFSSEDIKAYAEVSHDWNPLHFDPESARKAGFENRLVHGMLVSSMFPRIISAHFPGAVYVSQSLHFRSPVYIGDEILGLVQAIALRETKNKYIVKFSTKCFKNHNELVVIDGEATAILPNLDMLQKSPSE | failed |
| MARRPFSSQSLVLIVIAIAINMIGGQLISMLKLPIFLDSIGTLISAVLLGPFIGMLTGLLTNLLWGLLTDPIAAAFAPVAMVIGLVAGWLARAGWFRTLPKVIVSGVVITLAVTLVAVPLRTALFGGVTGSGADLFVAWMHSMGQNLVESVAITVIGANLVDKILTAIIVWVLLRQLPLRTTRHFPAMSAVR | failed |
| MARTIENMAKPASDMPPYDKAAALRGLAGARRVALLMAPRLGDTLLMMNMARNLAAHGREVSIFGDYIHGLRDWFPGLDIRPSLSEEQAGQVLPGYDCAAQMHVGWPYALHAHQPNYFYYDAHVAITGRGFVKLFQIRDFCREQLGLAQAGADNGLRPPPQVQPHRSHPRRVALHPTSTGAQRCWAPRHFKELGLRLLHEGYEPNYIVAPHERAEWSWVLDHGLHLPQFPSLSEVAGFIHASGWFIGNESGIGHLASNVGVPTLSLTGRPTRTRAWRPAWSTSRIVYPALIPGGRWRDRLWREWLSPRRVMSAFHKLQADDRRQPVGVPWGKI | failed |
| MARVLVDFQPVGRRVEVDAGQTILSAIQQLGLSLGAGGLTAPCGGRGLCGRCRVRIASGEVGEVNPAERRFLTPAQLEKGYRLACQATVIGPVKVEIPPESMLGVQKLQVEGLDIAVTPEPPVKRYNLPLSKTTIENPLPLWQQVTGELEATYGLDRPGVDFGLAREWKPMATEGECVVTVRGPEVINIYTGRLAPPPVGLAVDLGTTKVAGFLINLETGATLAADGIMNPQITYGEDVMARLGYALEGEEEYRRIQEVEIEGLNRLAATLAAKAGVATTDIEEAVIVGNTAMHHLLLHLPVEQLARAPYVPALTTPVEIKTRNLGLNLSPGAFVYLQPVIAGFVGGDHVAMILGSRIDEARKVTLGLDIGTNTEIVLSYGGKMLSCSCASGPAFEGAHIAQGMRAVTGAIAAVRLSDDGRDVFWESIGGVPPLGICGSGILDAVAELYRTGILNASGRLDLNHPRVRRPAGGGPPEFLLVPAAETGIDGDLVVTQKDINEIQLAKAAIATGTLLLLEAAGLTVKDLEEVVVAGAFGTHLKLESAITIGMFPNLPLTAFRQVGNAAGTGARLALLSLTERKRGEAIARQVGYLELMTRPSFHEVYVKSLLLP | failed |
| MARVRFENKRVNMSKLSQFGFEPNQNGQYQFRILIMQGQFEMIIELNTDGSLNTTLTDTTTSEVYVLHLTSQAHGQFVGQVAQAYQDVLYNIEQHCYDNDVFQSTPERKLIAQVKAAYGDDLEFLWPKFPQNAVWRRSDTHKWYGALLTVTSDKLALPGATHVVTVLDLRARPEDLSMLIDGQHYLPGYHMNKKHWYSILLDDVVPLATIMDDVKVSYMLAKLEHHHHHH | not failed |
| MARYHIETYGCTSNRGESRDIERRLRDAGHHKVETAADADVAILNTCTVVEKTERNMLRRAKELADETADLIVTGCMALAQGEAFADADVDAQVLHWDDVPEAVTNGECPTTTPDAEPILDGVVGILPIARGCMSNCSYCITKQATGRVDSPPVEENVEKARALVHAGAKEIRITGQDTGVYGWDTGERKLPELLERIATEIEGEFRVRVGMANPGGVHGIREELAAVFAEHDEIYNFLHAPVQSGSDDVLADMRRQHEVSQYRDIVETFNDTLGEWTLSTDFIVGFPTEDDDDHEASMDLLRETRPEKINVTRFSKRPGTDAAELKGLGGQTKKDRSKAMTELKMDVVGEAHESMVGTRRDVLVVEEGTGDSVKCYDGAYRQVIVQNATDHGLEPGDFATVEVTSHQTVYAFAEPVDAAAVDDGPAETTAD | failed |
| MARYINITLEKRGVTCKALLLDDVAPRTSKAVWDALPQSSQVFHGKYARNEIYNLVPAFAPKEPGAENTTVTPIPGDVCYFTFTSNDLKTPSHGYEADSGTDEVQTIVDLAVFYGRNNLLLNGDTGWVPGNVFATIVEGLDEMAAACQDIWMGGARDETLTFSRAEDTA | not failed |
| MASAHTTQTPFNRLLLTGAAGGLGKVLRETLRPYSHILRLSDIAEMAPAVGDHEEVQVCDLADKDAVHRLVEGVDAILHFGGVSVERPFEEILGANICGVFHIYEAARRHGVKRVIFASSNHVIGFYKQNETIDAHSPRRPDSYYGLSKSYGEDMASFYFDRYGIETVSIRIGSSFPEPQNRRMMSTWLSFDDLTRLLERALYTPDVGHTVVYGVSDNKTVWWDNRFASKLDYAPKDSSEVFRAKVDAQPMPADDDPAMVYQGGAFVASGPFGDK | failed |
| MASAMLATLELDYFRAVSLYRRRSYERCAELCNALLQAGHDGHVQLFTTKEEEEEEQHQQQQAEHSRFGSNLQRIGPRPRGAAGGGAGAVDSGPSIMMPTWLMEGVWQLKMRALTQRVYVDDLDEDDGGNEATEEVEFERIATAARPGSSIKTAFQPRPLTSQRAQQARSRGAGVAHSSDGRLNSSRPGSAAVARPGTSLSRPGSSLGSRCGTASRIRATSAAAFNVGDATSKLYQASRLNPTIYAERETLVKALFQFLYYHEADVQKAHSLCQAVLEVERQKPSGSTGCTLSWWWQQQMGRCLLALHYPRRAEPFLQQSLTSFPHPDTYLLLSRVYQRIKQPERALLVIGEVVDSRPFDVTYRLEQARIHQAMEQQEDALQLYRLAAKLHPINVESLASIAVGYFYDNNPEMALMYYRRILSLGAQSPELYCNIALCCLYGGQIDLVLPCFQRALATATQPGQKSDIWYNLSFVAVTSGDFNLAKRCLQLCLTSDAQNGAALNNLAVLAAQSGDILGAKSYLNAAKDVMPDAAEVTTNLQFMDVHYKL | failed |
| MASEDKFESVLSTRYCKNSPLVSILSETNKATLWRQLWIWLAEAEKELGLKQVTQDAIDEMKSNRDVFDWPFIRSEERKLKHDVMAHNHAFGKLCPTAAGIIHLGATSCFVQDNADLIAYRDSIDHILKRFATVIDRLAAFSLKNKEVVTVGRTHYQTASLVTVGKRGVLWAQELLMAFQSLSEFRDKMRFRGIKGATGTQDSFLTLFAGDESKVEALDELVTKKANFSNRFLITGQTYSRQQDSQLVFSLSLLGAAAKKVCTDIRVLQAFGELLEPFEKDQIGSSAMPYKKNPMKSERCCALSRKLINAPQEALTILADQGLERTLDDSAGRRMLIPDVLLTAEALLTTLQNIFEGLSVQTDNVKKIVEDEIAFLGLEKAMMMLTEEGVDRQQAHAVIRKTALEAKQLQATQKVDIRQTMADPFFDSVRDRVVGLVNNPINFTGRCVSQTESFIAKELKPTIDKYLDKSAGNVQLDV | not failed |
| MASEVVRDSLWRYFAEFVGTFILMLFGDGAVVASLVTNGTSPGYGFIMISWGFGVVLAIYAVGPISGAHINPNVTLAFAVTKRMKWRDVIPYILFQTLGAAAAAGILLAWWGSIITKMDPPPTLYAQVGASFFTEYPNPSFWGQYWPKELLLPNSASGTSLFSEVNQVFPLWIGAFAELLMTFLLLLIVLAVTDTDSPFFNQSLAPWAIGIGYVMPFLLFEAQLTGGMINEARSWGPMLALYLFGYRTGAFNFRGQYFFVYGIPDFIGGILGALFWDYVLKPYLKYLKSNNKK | failed |
| MASFPPRVNEKEIVRSRTIGELLAPAAPFDKKCGGENWTVAFAPDGSYFAWSQGYRIVKLVPWSQCLKNFLLHGSKNVTNSSCLKLARQNSNGGQKNKPREHIIDCGDIVWSLAFGSSVPEKQSRCVNIEWHRFRFGQDQLLLATGLNNGRIKIWDVYTGKLLLNLVDHIEVVRDLTFAPDGSLLLVSASRDKTLRVWDLKDDGNMVKVLRGHQNWVYSCAFSPDCSMLCSVGASKAVFLWNMDKYTMIRRLEGHHHDVVACDFSPDGALLATASYDTRVYVWDPHIGDTLMEFGHLFPPPTPIFAGGANDRWVRAVSFSHDGLHVASLADDKMVRFWSIGDDCPVQVAPLSNGLCCAFSTDGSVLAAGTHDGSVYFWATPRQVSSLQHLCRMSIRRVMPTQEVQKLPVPSKMLEFLSYRV | failed |
| MASGQGPGPPRQECGEPALPSASEEQVAQDTEEVFRSYVFYRHQQEQEAEGVAAPADPEMVTLPLQPSSTMGQVGRQLAIIGDDINRRYDSEFQTMLQHLQPTAENAYEYFTKIATSLFESGINWGRVVALLGFGYRLALHVYQHGLTGFLGQVTRFVVDFMLHHCIARWIAQRGGWVAALNLGNGPILNVLVVLGVVLLGQFVVRRFFKS | not failed |
| MASLSQLSSHLNYTCGAENSTGASQARPHAYYALSYCALILAIVFGNGLLCMAVLKERALQTTTNYLVVSLAVADLLVATLVMPWVVYLEVTGGVWNFSICCDVFVTLDVMMCTASILNLCAISIDRYTAVVMPVHYQHGTGQSSCRRVALMITAVWVLAFAVSCPLLFGFNTTGNPTVCSISNPDFVIYSSVVSFYLPFGVTVLVYARIYVVLKQRRRKRILTRQNSQCNSVRPGFPQQTLSPDPAHLELKRYYSICQDTALGGPGFQERGGELKREEKTRNSLSPTIAPKLSLEVRKLSNGRLSTSLKLGPLQPRGVPLREKKATQMVAIVLGTFIVCWLPFFLTHVLNTHCQTCHVSPELYSATTWLGYVNSALNPVIYTTFNIEFRKAFLKILSC | not failed |
| MASNMDREMILADFQACTGIENIDEAITLLEQNNWDLVAAINGVIPQENGILQSEYGGETIPGPAFNPASHPASAPTSSSSSAFRPVMPSRQIVERQPRMLDFRVEYRDRNVDVVLEDTCTVGEIKQILENELQIPVSKMLLKGWKTGDVEDSTVLKSLHLPKNNSLYVLTPDLPPPSSSSHAGALQESLNQNFMLIITHREVQREYNLNFSGSSTIQEVKRNVYDLTSIPVRHQLWEGWPTSATDDSMCLAESGLSYPCHRLTVGRRSSPAQTREQSEEQITDVHMVSDSDGDDFEDATEFGVDDGEVFGMASSALRKSPMMPENAENEGDALLQFTAEFSSRYGDCHPVFFIGSLEAAFQEAFYVKARDRKLLAIYLHHDESVLTNVFCSQMLCAESIVSYLSQNFITWAWDLTKDSNRARFLTMCNRHFGSVVAQTIRTQKTDQFPLFLIIMGKRSSNEVLNVIQGNTTVDELMMRLMAAMEIFTAQQQEDIKDEDEREARENVKREQDEAYRLSLEADRAKREAHEREMAEQFRLEQIRKEQEEEREAIRLSLEQALPPEPKEENAEPVSKLRIRTPSGEFLERRFLASNKLQIVFDFVASKGFPWDEYKLLSTFPRRDVTQLDPNKSLLEVKLFPQETLFLEAKE | not failed |
| MASNSSSCPTPGGGHLNGYPVPPYAFFFPPMLGGLSPPGALTTLQHQLPVSGYSTPSPATIETQSSSSEEIVPSPPSPPPLPRIYKPCFVCQDKSSGYHYGVSACEGCKGFFRRSIQKNMVYTCHRDKNCIINKVTRNRCQYCRLQKCFEVGMSKESVRNDRNKKKKEVPKPECSESYTLTPEVGELIEKVRKAHQETFPALCQLGKYTTNNSSEQRVSLDIDLWDKFSELSTKCIIKTVEFAKQLPGFTTLTIADQITLLKAACLDILILRICTRYTPEQDTMTFSDGLTLNRTQMHNAGFGPLTDLVFAFANQLLPLEMDDAETGLLSAICLICGDRQDLEQPDRVDMLQEPLLEALKVYVRKRRPSRPHMFPKMLMKITDLRSISAKGAERVITLKMEIPGSMPPLIQEMLENSEGLDTLSGQPGGGGRDGGGLAPPPGSCSPSLSPSSNRSSPATHSP | not failed |
| MASQITGSFTSLTKLITAGSYLAGLGFSIGAIMKFKQHKDNPTQIPIGTPIALIFIAAALLFLPSILGVAGVTMFGGSGGKTAGPTGTIYKTN | failed |
